These molecules were tested against GST-PHF6 WT (UniProt Q8IWS0) (assay: MST). Settings: not given.

Molecule	fold higher affinity than for the H2B WT peptide [fold]
H2B peptide (1:20) with K12Ac modification	5

What follows are molecules tested on H2BK120 of H2B WT-containing mono-nucleosomes (assay: In vitro ubiquitination assay, H2B-Flag WT mono-nucleosomes). Settings: GST-PHF6 WT/MTs as E3; E1, E2, ubiquitin, 50 μM ZnCl2; 37°C, 1 h.
Type: biochemical

Molecule	E3 ubiquitin ligase activity for H2BK120
PHF6 WT: PHF6 WT expressed as GST fusion protein in E. coli Rosetta (DE3) cells (protein, labeled with the dye NT-647 (Cy5), in the MST only; left off: GST, end not stated, kept) MSSSVEQKKGPTRQRKCGFCKSNRDKECGQLLISENQKVAAHHKCMLFSSALVSSHSDNESLGGFSIEDVQKEIKRGTKLMCSLCHCPGATIGCDVKTCHRTYHYHCALHDKAQIREKPSQGIYMVYCRKHKKTAHNSEADLEESFNEHELEPSSPKSKKKSRKGRPRKTNFKGLSEDTRSTSSHGTDEMESSSYRDRSPHRSSPSDTRPKCGFCHVGEEENEARGKLHIFNAKKAAAHYKCMLFSSGTVQLTTTSRAEFGDFDIKTVLQEIKRGKRMKCTLCSQPGATIGCEIKACVKTYHYHCGVQDKAKYIENMSRGIYKLYCKNHSGNDERDEEDEERESKSRGKVEIDQQQLTQQQLNGN	able to ubiquitinate H2BK120
E223S: H2BK12Ac unrecognizable MT of extended PHD2 (protein, labeled with the dye NT-647 (Cy5), in the MST only; left off: GST, end not stated, kept) MSSSVEQKKGPTRQRKCGFCKSNRDKECGQLLISENQKVAAHHKCMLFSSALVSSHSDNESLGGFSIEDVQKEIKRGTKLMCSLCHCPGATIGCDVKTCHRTYHYHCALHDKAQIREKPSQGIYMVYCRKHKKTAHNSEADLEESFNEHELEPSSPKSKKKSRKGRPRKTNFKGLSEDTRSTSSHGTDEMESSSYRDRSPHRSSPSDTRPKCGFCHVGEEENSARGKLHIFNAKKAAAHYKCMLFSSGTVQLTTTSRAEFGDFDIKTVLQEIKRGKRMKCTLCSQPGATIGCEIKACVKTYHYHCGVQDKAKYIENMSRGIYKLYCKNHSGNDERDEEDEERESKSRGKVEIDQQQLTQQQLNGN	neither C82A (functional activity dead MT of extended PHD1 by disrupting Zinc ion capturing) nor E223S (H2BK12Ac unrecognizable MT of extended PHD2) were able to ubiquitinate H2BK120
C82A (protein, UniProt Q8IWS0 2-365, looked up, variant C82A) PHD finger protein 6: SSSVEQKKGPTRQRKCGFCKSNRDKECGQLLISENQKVAAHHKCMLFSSALVSSHSDNESLGGFSIEDVQKEIKRGTKLMASLCHCPGATIGCDVKTCHRTYHYHCALHDKAQIREKPSQGIYMVYCRKHKKTAHNSEADLEESFNEHELEPSSPKSKKKSRKGRPRKTNFKGLSEDTRSTSSHGTDEMESSSYRDRSPHRSSPSDTRPKCGFCHVGEEENEARGKLHIFNAKKAAAHYKCMLFSSGTVQLTTTSRAEFGDFDIKTVLQEIKRGKRMKCTLCSQPGATIGCEIKACVKTYHYHCGVQDKAKYIENMSRGIYKLYCKNHSGNDERDEEDEERESKSRGKVEIDQQQLTQQQLNGN	neither C82A (functional activity dead MT of extended PHD1 by disrupting Zinc ion capturing) nor E223S (H2BK12Ac unrecognizable MT of extended PHD2) were able to ubiquitinate H2BK120
R129A (protein, UniProt Q8IWS0 2-365, looked up, variant R129A) PHD finger protein 6: SSSVEQKKGPTRQRKCGFCKSNRDKECGQLLISENQKVAAHHKCMLFSSALVSSHSDNESLGGFSIEDVQKEIKRGTKLMCSLCHCPGATIGCDVKTCHRTYHYHCALHDKAQIREKPSQGIYMVYCAKHKKTAHNSEADLEESFNEHELEPSSPKSKKKSRKGRPRKTNFKGLSEDTRSTSSHGTDEMESSSYRDRSPHRSSPSDTRPKCGFCHVGEEENEARGKLHIFNAKKAAAHYKCMLFSSGTVQLTTTSRAEFGDFDIKTVLQEIKRGKRMKCTLCSQPGATIGCEIKACVKTYHYHCGVQDKAKYIENMSRGIYKLYCKNHSGNDERDEEDEERESKSRGKVEIDQQQLTQQQLNGN	indispensable for E3 ligase activity of PHF6
M125A (protein, UniProt Q8IWS0 2-365, looked up, variant M125A) PHD finger protein 6: SSSVEQKKGPTRQRKCGFCKSNRDKECGQLLISENQKVAAHHKCMLFSSALVSSHSDNESLGGFSIEDVQKEIKRGTKLMCSLCHCPGATIGCDVKTCHRTYHYHCALHDKAQIREKPSQGIYAVYCRKHKKTAHNSEADLEESFNEHELEPSSPKSKKKSRKGRPRKTNFKGLSEDTRSTSSHGTDEMESSSYRDRSPHRSSPSDTRPKCGFCHVGEEENEARGKLHIFNAKKAAAHYKCMLFSSGTVQLTTTSRAEFGDFDIKTVLQEIKRGKRMKCTLCSQPGATIGCEIKACVKTYHYHCGVQDKAKYIENMSRGIYKLYCKNHSGNDERDEEDEERESKSRGKVEIDQQQLTQQQLNGN	indispensable for E3 ligase activity of PHF6

Reference: paper PMC7498345 (Nucleic Acids Research, 2020)
